Measured values: the DeepSol protein solubility set

Test: soluble on expression in E. coli; label from the status in PepcDB or PDB records
With “MKKLLFFTLLLFGVLSVRSLADGCNAQVCMCPNGGYVTTGQYCSTSSGESWIITPIIGTVAIDPATGKWASISNTKDRKEAKNDVLERCGSDCKVFMVDSKRCVGVAYSKSDKIIGSDSATDNFGGIGYNTRVERSNEKALKKCEKNGGKDCKIIANVCAVEGTTKY” the “soluble on expression in E. coli” value was “not soluble”. In the case of “GSKGDSKETRLTLMEEVLLLGLKDREGYTSFWNDCISSGLRGCMLIELALRGRLQLEACGMRRKSLLTRKVICKSDAPTGDVLLDEALKHVKETQPPETVQNWIELLSGETWNPLKLHYQLRNVRERLAKNLVEKGVLTTEKQNFLLFDMTTHPLTNNNIKQRLIKKVQEAVLDKWVNDPHRMDRRLLALIYLAHASDVLENAFAPLLDEQYDLATKRVRQLLDLDPEVECLKANTNEVLWAVVAAFTK”, the “soluble on expression in E. coli” value is reported as “soluble”. With “MNRILSMIEQMEPGVVIFNDDLTISSVSSMVFMIFGHIPRERIFAGDLLDIHDEAAREKVKETLRLARQAQRHIPLSLKFITSEGHDRYLLVKLITVAERDPASEKICALFYDITPFIVAERKLTRVPVTSRGDIHLLRPEEIVYLKADNIYSLIYTEAGEFHSDLSLGAMEKRLSEDIFYRIHRSYLVNLAKVRKVHRESSECTVAAGGGEVRLPVSRDKMQRFLTDLGLK” the “soluble on expression in E. coli” value was “not soluble”. With “MASISTPFPISLHPKTVRSKPLKFRVLTRPIKASGSETPDLTVATRTGSKDLPIRNIPGNYGLPIVGPIKDRWDYFYDQGAEEFFKSRIRKYNSTVYRVNMPPGAFIAENPQVVALLDGKSFPVLFDVDKVEKKDLFTGTYMPSTELTGGYRILSYLDPSEPKHEKLKNLLFFLLKSSRNRIFPEFQATYSELFDSLEKELSLKGKADFGGSSDGTAFNFLARAFYGTNPADTKLKADAPGLITKWVLFNLHPLLSIGLPRVIEEPLIHTFSLPPALVKSDYQRLYEFFLESAGEILVEADKLGISREEATHNLLFATCFNTWGGMKILFPNMVKRIGRAGHQVHNRLAEEIRSVIKSNGGELTMGAIEKMELTKSVVYECLRFEPPVTAQYGRAKKDLVIESHDAAFKVKAGEMLYGYQPLATRDPKIFDRADEFVPERFVGEEGEKLLRHVLWSNGPETETPTVGNKQCAGKDFVVLVARLFVIEIFRRYDSFDIEVGTSPLGSSVNFSSLRKASF” the “soluble on expression in E. coli” value was “soluble”. With “MNLTNYHSHTLYCDGRAGMEDFIRFAISRGFTSYGISSHAPLPFPTHWTMEWDRMDDYLDEFTRMKEKYASEIELAVGLEIDYLNEDSNPSVRRFQELPLDYRIGSVHLLYNDRDEVVDIDVCAEVFRDIVDQHFGGDLDRVIHLYYDRLLRMVELGGFDILGHADKMHHNAACYRPGLLDESWYDALIHDYFSAVAAKGYIVEINTKALHHLNTFFPNERYFPLLKELGVRVQVNSDSHYPERINSGRPEALAALQKAGFETVTEWHGGKWIEMPLLEHHHHHH” the “soluble on expression in E. coli” value was “soluble”. With “MFNNNDFKDYRKLLGFGSQNAFKEFLGAKDIQPCVDFNDLNALKKRLIEIFSAINSIYCFKYNEYELECFFKNSIERVFSKIVDTHIIYKLNNQGRRPEEVCFSWMRGFLVAEFFKDFIACLFSAQKETIKFFGGDNFENIESFKRSPKADFLLDNHLLLEVQSDFQGINDIKEHKVLEAKRRLITDKVPTIVVHFDLFNGQVACVEISKIKDNDLNWITRQQMEGQSVFNISQNFFDYKITEIPNKPLS” the “soluble on expression in E. coli” value was “not soluble”. In the case of “MGSDKIHHHHHHMNQHIKGKHLSFEERVIIQLRLKDGYSLRAIARELNCSPSTISYEVKRGTVELYGKVKRYKATQGHDAYQAHRKNCGRKSDFLRKTQFMRYVHKHFFKDGWSLDVCSNRATAVGAFSSRDVVCTKTLYNYVDQGLLDIHNYDLPEKLKRNTKLHRIRKNKKKLGRSIEERPKEINKRNEFGHWECDLVLGHKCTDDEVLLALSERMSREFLILRIPDKTSVSVMQAFKELQRQYSEHWNDIFKTITTDNGSEFADLSNLEKASNTLVYYAHPYTSCDKGTVERHNGLIRRFIPKEEAIANYSLQDIINIETWCNSLPRKILAYHTPDEIFERELDLIYQAA”, the “soluble on expression in E. coli” value is reported as “not soluble”. In the case of “MSLGPYYINTHFLYGSEEKANKLLEFIDKEKENILKCPDRILEETMKNYQSDPIYRGLIDEMCDFIKNNIDVNEVDYISGGERRDWFFSPIIAKLLNKPHITIYKDLTTVVSSDGKTEELKELNGESVLHIADLITEASSYERAWIPAIKNNGGRIKWSVVVVDRKQGGAELLKSYDIKSFSMVDIDIGLFKRVLDMGLIDRGQFEMIEQYILDPKESMAKFLRKNEGHHHHHH”, the “soluble on expression in E. coli” value is reported as “not soluble”. For “MSKLRFRVVETAFKKKAVEVATPAERPSEYFGKYVFNKEKMFKYLPSKVYNALIDAIDNGAPLDRSIADEVAAGMKKWAVEMGVTHYTHWFAPLTEGTAEKHDAFVEHDGKGGMMEEFTGKLLVQQEPDASSFPNGGIRNTFEARGYSAWDPSSPAFIVDDTLCIPTVFIAYTGEALDYKAPLLKALRAVDKAATAVCHYFNPEVKKVVAYLGWEQEYFLVDEGLYAARPDLLMTGRTLMGHDSAKNQQLEDHYFGAIPTRVAAFMKDLEIEALKLGIPVKTRHNEVAPNQFELAPIFEECNLANDHNLLIMSLMRKVSRRHGFRVLLHEKPFKGVNGSGKHNNWSLGTDTGILLMGPGKTPEDNLRFVTFVVNTLMAVYRHNGLLKASISSATNAHRLGANEAPPAIISSFLGKQLSQVLDHIENSTKDDLINLSGKQGMKLDIPQIPELLIDNTDRNRTSPFAFTGNRFEFRAVGSEANCASAMIALNAAVAEQLMKFKKDVDALIEKGEPKVSAILEVIRGYIKECKAIHFDGNGYSDEWKVEAARRGLDCETSVPVIFDNYLKPETIAMFEAIGVMTKKELEARNEVKWETYTKKIQIEARVLGDLAMNHIIPVATQYQTDLINNVYKMQSLFPADKAARLSAKNLELIEEIADRTAFIKEHVDAMIEARKVANKIESEREKAIAYHDTIVPALEEIRYHIDKLELIVDNQMWTLPKYRELLFVR”, the “soluble on expression in E. coli” value was “soluble”. In the case of “MDYKFPKDFMFGTSTASYQIEGGWNEDGKGENIWDRLVHTSPEVIKDGTNGDIACDSYHKYKEDVAIIKDLNLKFYRFSISWARIAPSGVMNSLEPKGIAYYNNLINELIKNDIIPLVTMYHWDLPQYLQDLGGWVNPIMSDYFKEYARVLFTYFGDRVKWWITFNEPIAVCKGYSIKAYAPNLNLKTTGHYLAGHTQLIAHGKAYRLYEEMFKPTQNGKISISISGVFFMPKNAESDDDIETAERANQFERGWFGHPVYKGDYPPIMKKWVDQKSKEEGLPWSKLPKFTKDEIKLLKGTADFYALNHYSSRLVTFGSDPNPNFNPDASYVTSVDEAWLKPNETPYIIPVPEGLRKLLIWLKNEYGNPQLLITENGYGDDGQLDDFEKISYLKNYLNATLQAMYEDKCNVIGYTVWSLLDNFEWFYGYSIHFGLVKIDFNDPQRTRTKRESYTYFKNVVSTGKP”, the “soluble on expression in E. coli” value is reported as “soluble”. In the case of “MSLSRIRKAPAGILGFPVAPFNTQGTLEEEALFQNIEFLLNEGLEAIFIACGSGEFQSLSQKEYEQMVEVAVSAAGGKVPVYTGVGGNLSTALDWAQLSEKKGADGYLILPPYLVHGEQEGLYQYAKTIIESTDLNAILYQRDNAVLSVEQIKRLTECEQLVGVKDGVGNMDLNINLVYTIGDRLGWLNGMPMAEVTMPAYLPIGFHSYSSAISNYIPHISRMFYDALKNGNDELVKELYRHVILPINDIRKQRKGYAVSLIKAGMEIMGLNVRNTARPPVGPVEKDHYQQLEAILKQPADRFPKKEGHHHHHH”, the “soluble on expression in E. coli” value is reported as “soluble”. For “KKDFTWNATVNFSSNQSKVLSLGAETQMLEGRPVGSASGSENVLIKKGYPLGLFYGLQMEGIRSNWHSDYNGIGSADSPWWYATEREMPYGFPSFADTNGDGKVDMSDRVVIGDVNPVFIGGLNTRLRWKFIELAMDFSWSYGNDIINGNVYNLMNNGDIRNKSAVYYKDAWFANNPTGTFTGPGAIDWSGYMWAASNSEMVEDGSFLKMNNLAVTFRMPKNILKAWKIKDLALTYTINNVFCLTNYSGYDPEVRSGSSVNNRILPGVDISAYPYARSHIFSLNFKY”, the “soluble on expression in E. coli” value was “not soluble”. In the case of “MKLKIDLNCDLGEAFGNYTFGGDQHILPLITSANIACGYHAGDEDVMNETVQLAKKNNISIGAHPGLPDLKGFGRRKMDLTPNEIYNLVIYQLGALSGFCKINHVKMMHVKPHGALYQMGARNKEIAHAIAQAVFDFDSNLIFVGLANTLLISEAELVGLKVASEVFADRRYEDDGQLVSRKKTDATITNTDEAIQQALKMVLENKVVSKNGKIIDLKADTICVHGDGKHALEFVTQIRNELMKEGIDIQSLLEHHHHHH”, the “soluble on expression in E. coli” value is reported as “soluble”. For “MGYRIEFDPRAEKELEKLDREVARRILRFLRERVATLEDPRSLGEPLRGPELGRFWKYRVGDYRLICHIQDREATVLVLRVGHARDVYR”, the “soluble on expression in E. coli” value was “soluble”. With “MGSDKIHHHHHHMFTQATFDFLAALEANNERDWFKANQHTYEDKVRTPALALIEAAAPAIVALSPRLTAVAKKVGGSLMRPQRDTRFGHDKRPYKTNVGIQFRHFQGKDVHAPGLYLHIANDGCFVAAGIWHPESKALNAIRSCIDENPATYQKALKALTDSGFAMDGDSLSRPPRGYDKRHPLIDELKRKDFIAVKSLTNHEVLQPDFASRLVAEFEHCQQLMRYLCFALELDY” the “soluble on expression in E. coli” value was “not soluble”. In the case of “MVPPKLKQALELFKSLPKELRSQVLLEYAAKVPPPPPGVELERVHECQTPFFVHADVEGGKVRLYFHVPDEAPTVKAFAGLLREGLEGESPEAVLEVPPGFYRGYGLEEFFTPLRLRGLEAALLRLQAQVRKALTS”, the “soluble on expression in E. coli” value is reported as “soluble”. In the case of “MMMDILMYLFETYVHSDADLQVDQDQLEDELLRAGFHQKDIYKALHWLEELAALQQTDAQTAIAKSAPTSMRIYAPEEIERLDLESRGFLLFLEHINVLTPETREMVIDRVMGLETDEFELDDLKWIILMVLFNVPGNENAYTVMEELLYSKEQGILH”, the “soluble on expression in E. coli” value is reported as “not soluble”. For “MSEMTPREIVSELDQHIIGQADAKRAVAIALRNRWRRMQLQEPLRHEVTPKNILMIGPTGVGKTEIARRLAKLANAPFIKVEATKFTEVGYVGKEVDSIIRDLTDSAGGAIDAVEQNGIVFIDEIDKICKKGEYSGADVSREGVQRDLLPLVEGSTVSTKHGMVKTDHILFIASGAFQVARPSDLIPELQGRLPIRVELTALSAADFERILTEPHASLTEQYKALMATEGVNIAFTTDAVKKIAEAAFRVNEKTENIGARRLHTVMERLMDKISFSASDMNGQTVNIDAAYVADALGEVVENEDLSRFIL”, the “soluble on expression in E. coli” value was “soluble”. With “GHHHHHHAIAENLYFQSEVSKANGTENNVEKFDAATQEATYLDEADVDAELEAMKKRLQEMEEEANRLKEVQEQSASEVPSSEEVDRRSVYVGNVDYGSTPEELQAHFKECGTINRVTILCDKFTGHPKGFAYIEFATEEGANNAVILNESLFRGRNLKVSIKRTNVPGISTTDRGRGRGFPRGIGFRGRGGLRGGFRGRGYHGFRGRGRMTPY” the “soluble on expression in E. coli” value was “not soluble”. In the case of “MKFLLLLFPVLLLAKSPEKRSKVGIDEDNFLQLLEVEIARTLRSELSSDDDLQNLEGSSDSPEDDYLKKYDLILSSSTTSPKPITTTETTTRSTTTTTTTTTTTAAPSTTTSTVKITPKPLRSTPQCVPEKDCYKDSECPSGKCFGSELGLCDCNACITNKKCSSDLDCGGLRNGCDSNGNCDCVNAFHSHGYKLFVKVLLTFCHQTKCTKTSDNCYGLPCRVGKCKCFVGSLSVVTMCSRVLFVLLSTFTVLAGASVTCDLTQKPSTWAQVHAKNIFFNAYEPDNYFSLNGFCVNNDFMSHTLTYSSHVKLADSSVKVKTDVALNTNFDASLSNCGKDVSQVQWCQSHCQDKTLENVIVSSAVINGSLPLALAQQVFSTIGSPNDTSIASMQVDLNSQGVRIDYDYYDDFNFCSVYVKVKRPSMFPYALFITVQKIVGV”, the “soluble on expression in E. coli” value is reported as “not soluble”.
